Assay results as given in PMC6940986, “Structural Insights into the Intracellular Region of the Human Magnesium Transport Mediator CNNM4” (International Journal of Molecular Sciences, 2019).

B1: CNNM4_(BAT-cNMP-Ctail) (complete intracellular region of human CNNM4, residues 356-775) [human] / itself (parent)
chain: KEELNMIQGALELRTKTVEDIMTQLQDCFMIRSDAILDFNTMSEIMESGYTRIPVFEDEQSNIVDILYVKDLAFVDPDDCTPLKTITRFYNHPVHFVFHDTKLDAMLEEFKKGKSHLAIVQKVNNEGEGDPFYEVLGLVTLEDVIEEIIKSEILDESDMYTDNRSRKRVSEKNKRDFSAFKDADNELKVKISPQLLLAAHRFLATEVSQFSPSLISEKILLRLLKYPDVIQELKFDEHNKYYARHYLYTRNKPADYFILILQGKVEVEAGKENMKFETGAFSYYGTMALTSVPSDRSPAHPTPLSRSASLSYPDRTDVSTAATLAGSSNQFGSSVLGQYISDFSVRALVDLQYIKITRQQYQNGLLASRMENSPQFPIDGCTTHMENLAEKSELPVVDETTTLLNERNSLLHKASHENAI
B2: CNNM4_(cNMP) (human CNNM4 cyclic nucleotide monophosphate binding-like domain, residues 545-730) [modified: SeMet labeled in the crystals; SeMet labeled in the crystals] [human] / itself (parent)
chain: KISPQLLLAAHRFLATEVSQFSPSLISEKILLRLLKYPDVIQELKFDEHNKYYARHYLYTRNKPADYFILILQGKVEVEAGKENMKFETGAFSYYGTMALTSVPSDRSPAHPTPLSRSASLSYPDRTDVSTAATLAGSSNQFGSSVLGQYISDFSVRALVDLQYIKITRQQYQNGLLASRMENSPQ

What was measured:
itself [1] = variants of: B1; test: SEC-MALS; conditions: with itself, monomer MW = 47,861.17 Da
itself [2] = variants of: B2; test: SEC-MALS; conditions: with itself, monomer Mw = 20936.78 Da

Row | screen value (itself [1]; 1 mg/mL (dotted lines)) [Da] | screen value (itself [1]; 10 mg/mL (solid lines)) [Da] | screen value (itself [2]; 1 mg/mL (dotted lines)) [Da] | screen value (itself [2]; 10 mg/mL (solid lines)) [Da] | Variant
1 | 49200 | 60900 | – | – | chain 1 F276A
2 | – | – | 21700 | 26400 | chain 1 F87A
